Columns and labels:
[1] = target: T1, 8-oxoguanine DNA glycosylase (OGG1) (UniProt O15527 1-345); test: capillary electrophoresis (NECEEM); 0.2 uM aptamer, 5.0 uM OGG1, n=3; CE in fused-silica capillary (75 um i.d. x 50.2 cm, 40 cm effective); borate reagents listed; 15 min incubation stated for the selection; buffer composition, pH and temperature not in the material; details: protein: commercial; (library is FAM labelled)
[2] = target: T1, 8-oxoguanine DNA glycosylase (OGG1); test: capillary electrophoresis (NECEEM); 0.2 uM aptamer, 5.0 uM OGG1, n=3; abstract gives range 1.71-2.64 uM for the top three candidates; CE in fused-silica capillary (75 um i.d. x 50.2 cm, 40 cm effective); borate reagents listed; 15 min incubation stated for the selection; buffer composition, pH and temperature not in the material; details: protein: commercial; (library is FAM labelled)

T1 sequence (O15527 whole entry, the tested form may be a part): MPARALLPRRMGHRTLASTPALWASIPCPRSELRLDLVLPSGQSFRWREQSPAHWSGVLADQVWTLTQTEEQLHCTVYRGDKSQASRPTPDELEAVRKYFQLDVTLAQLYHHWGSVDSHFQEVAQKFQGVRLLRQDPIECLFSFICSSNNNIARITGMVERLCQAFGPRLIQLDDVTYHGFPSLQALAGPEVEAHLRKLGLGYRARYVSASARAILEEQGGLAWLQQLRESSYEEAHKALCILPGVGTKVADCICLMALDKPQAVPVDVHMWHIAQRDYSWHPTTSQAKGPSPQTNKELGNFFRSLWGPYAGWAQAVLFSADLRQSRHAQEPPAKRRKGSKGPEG

B1: OGG1-Apt 1 (ssDNA)
DNA: AGCAGCACAGAGGTCAGATGGCCACATTAGTCTCACCACTACCTGCGTACCTACCGCCGCCCTATGCGTGCTACCGTGAA
Binder B1 has a Kd [1] of 1700 ± 100 nM.

B2: OGG1-Apt 2 (ssDNA)
DNA: AGCAGCACAGAGGTCAGATGTTGATGGCAGGTATTGCTAGGTCTACATGGAACTTGTTAACCTATGCGTGCTACCGTGAA
B2 showed a Kd [1] of 2600 ± 200 nM.

B3: OGG1-Apt 4 (ssDNA)
DNA: AGCAGCACAGAGGTCAGATGGCGAAGCGTACCGGCTACCCAGTGACAGTCGCCGTGGGTCCCTATGCGTGCTACCGTGAA
With B3 the Kd [2] was 2800 ± 200 nM.

B4: OGG1-Apt 6 (ssDNA)
DNA: AGCAGCACAGAGGTCAGATGCCGATCGTTGTTCCCGATCAAGATGGGGAATCTCAGTCGCCCTATGCGTGCTACCGTGAA
Binder B4 has a Kd [1] of 1800 ± 100 nM.

Source: paper PMC9404054, “Efficient screening for 8-oxoguanine DNA glycosylase binding aptamers via capillary electrophoresis”
